Holding throughout (assay): competition
In test [1] the target is T1, hMC5-R (human, UniProt P33032).
Test [2] concerns the target T2, hMC1-R (human, UniProt Q01726).
Test [3] has as its target T3, hMC3-R (human, UniProt P41968).
In test [4] the target is T4, hMC4-R (human, UniProt P32245).
Test [5] deals with T2, hMC1-R. The source holds these as a separate data set.
Test [6] addresses T3, hMC3-R. The source holds these as a separate data set.
In test [7] the target is T1, hMC5-R. This is another data set of the same source.
The target of test [8] is T4, hMC4-R. The source holds these as a separate data set.

Read-outs that look alike come from different tables or passages of the source. Bridges are numbered along the chain shown (N, C = ends). [ ]: non-standard residue; d: D form. 1Nal = N[C@@H](Cc1cccc2ccccc12)C(=O)O; 2Nal = N[C@@H](Cc1ccc2ccccc2c1)C(=O)O; d2Nal = N[C@H](Cc1ccc2ccccc2c1)C(=O)O; Aib = CC(C)(N)C(=O)O; βAla = NCCC(=O)O

The text below walks through data of patent US8349797 (dated 2013).

T2 sequence (Q01726 whole entry): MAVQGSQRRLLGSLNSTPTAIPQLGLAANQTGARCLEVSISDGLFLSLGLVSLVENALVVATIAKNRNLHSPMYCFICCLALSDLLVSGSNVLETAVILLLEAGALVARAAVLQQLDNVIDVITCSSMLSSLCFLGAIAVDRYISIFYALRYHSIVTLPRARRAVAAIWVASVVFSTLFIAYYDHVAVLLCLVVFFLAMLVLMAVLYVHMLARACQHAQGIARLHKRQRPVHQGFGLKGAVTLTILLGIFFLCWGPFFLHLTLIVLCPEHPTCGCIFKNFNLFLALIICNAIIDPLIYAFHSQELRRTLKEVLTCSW
T1 sequence (P33032 whole entry): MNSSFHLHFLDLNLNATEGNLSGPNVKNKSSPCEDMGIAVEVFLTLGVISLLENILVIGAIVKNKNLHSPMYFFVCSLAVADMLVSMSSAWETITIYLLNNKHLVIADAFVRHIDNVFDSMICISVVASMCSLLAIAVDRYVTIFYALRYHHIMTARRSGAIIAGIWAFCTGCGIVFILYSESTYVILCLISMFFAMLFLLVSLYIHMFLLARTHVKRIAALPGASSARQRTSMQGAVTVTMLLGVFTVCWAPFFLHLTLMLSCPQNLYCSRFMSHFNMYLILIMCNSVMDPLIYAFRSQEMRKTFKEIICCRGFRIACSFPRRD
T3 sequence (P41968 whole entry): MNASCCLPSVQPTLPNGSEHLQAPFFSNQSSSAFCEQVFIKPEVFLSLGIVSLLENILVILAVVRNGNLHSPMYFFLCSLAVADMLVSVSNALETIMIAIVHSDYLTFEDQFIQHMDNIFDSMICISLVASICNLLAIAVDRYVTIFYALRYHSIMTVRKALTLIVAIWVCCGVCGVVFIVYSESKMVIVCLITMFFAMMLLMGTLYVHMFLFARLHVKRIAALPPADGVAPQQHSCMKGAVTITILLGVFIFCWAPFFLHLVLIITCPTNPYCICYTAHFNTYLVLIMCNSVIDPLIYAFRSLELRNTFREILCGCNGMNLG
T4 sequence (P32245 whole entry): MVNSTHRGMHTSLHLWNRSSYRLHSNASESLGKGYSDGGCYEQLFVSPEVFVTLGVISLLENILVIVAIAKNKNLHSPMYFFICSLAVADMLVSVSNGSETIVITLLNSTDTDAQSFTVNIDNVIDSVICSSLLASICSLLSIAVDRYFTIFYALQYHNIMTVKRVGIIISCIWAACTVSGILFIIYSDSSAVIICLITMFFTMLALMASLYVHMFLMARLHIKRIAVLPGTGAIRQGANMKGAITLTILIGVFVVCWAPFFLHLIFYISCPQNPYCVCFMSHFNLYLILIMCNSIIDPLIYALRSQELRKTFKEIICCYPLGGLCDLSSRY

B1: Table 2A compound 15 (peptide)
chain: Ac-CEH[d2Nal]R[1Nal]ACPPKD-NH2
modifications: disulfide 1-8
SMILES: CC(=O)N[C@H]1CSSC[C@@H](C(=O)N2CCC[C@H]2C(=O)N2CCC[C@H]2C(=O)N[C@@H](CCCCN)C(=O)N[C@@H](CC(=O)O)C(N)=O)NC(=O)[C@H](C)NC(=O)[C@H](Cc2cccc3ccccc23)NC(=O)[C@H](CCCNC(=N)N)NC(=O)[C@@H](Cc2ccc3ccccc3c2)NC(=O)[C@H](Cc2c[nH]cn2)NC(=O)[C@H](CCC(=O)O)NC1=O
As to B1, the Ki in the test with hMC5-R [1] was determined as 348 nM; with hMC1-R [2], 124 nM; in the test with hMC3-R [3], 17.8 nM; in the test with hMC4-R [4], 1.11 nM.

B2: Table 2B compound 1 (peptide)
chain: Ac-CEH[d2Nal]R[2Nal][βAla]CPPKD-NH2
modifications: disulfide 1-8
SMILES: CC(=O)N[C@H]1CSSC[C@@H](C(=O)N2CCC[C@H]2C(=O)N2CCC[C@H]2C(=O)N[C@@H](CCCCN)C(=O)N[C@@H](CC(=O)O)C(N)=O)NC(=O)CCNC(=O)[C@H](Cc2ccc3ccccc3c2)NC(=O)[C@H](CCCNC(=N)N)NC(=O)[C@@H](Cc2ccc3ccccc3c2)NC(=O)[C@H](Cc2c[nH]cn2)NC(=O)[C@H](CCC(=O)O)NC1=O
In the case of B2, the Ki is 2060 nM with hMC1-R [5], 113 nM in the test with hMC3-R [6], 239 nM with hMC5-R [7] and 10.7 nM with hMC4-R [8].

B3: Table 2B compound 2 (peptide)
chain: Ac-CEH[d2Nal]R[2Nal][Aib]CPPKD-NH2
modifications: disulfide 1-8
SMILES: CC(=O)N[C@H]1CSSC[C@@H](C(=O)N2CCC[C@H]2C(=O)N2CCC[C@H]2C(=O)N[C@@H](CCCCN)C(=O)N[C@@H](CC(=O)O)C(N)=O)NC(=O)C(C)(C)NC(=O)[C@H](Cc2ccc3ccccc3c2)NC(=O)[C@H](CCCNC(=N)N)NC(=O)[C@@H](Cc2ccc3ccccc3c2)NC(=O)[C@H](Cc2c[nH]cn2)NC(=O)[C@H](CCC(=O)O)NC1=O
On to B3, for which the Ki in the test with hMC1-R [5] turned out to be 1820 nM; with hMC3-R [6], 306 nM; with hMC5-R [7], 979 nM; with hMC4-R [8] it was 5.87 nM.

B4: Table 2A compound 14 (peptide)
chain: Ac-CEH[d2Nal]R[2Nal]ACPPKD-NH2
modifications: disulfide 1-8
SMILES: CC(=O)N[C@H]1CSSC[C@@H](C(=O)N2CCC[C@H]2C(=O)N2CCC[C@H]2C(=O)N[C@@H](CCCCN)C(=O)N[C@@H](CC(=O)O)C(N)=O)NC(=O)[C@H](C)NC(=O)[C@H](Cc2ccc3ccccc3c2)NC(=O)[C@H](CCCNC(=N)N)NC(=O)[C@@H](Cc2ccc3ccccc3c2)NC(=O)[C@H](Cc2c[nH]cn2)NC(=O)[C@H](CCC(=O)O)NC1=O
With B4, the Ki turned out to be 359 nM in the test with hMC5-R [1], 87.8 nM with hMC1-R [2], 9.08 nM with hMC3-R [3] and 1.2 nM with hMC4-R [4].

The Ki is a measure of affinity in units of concentration, obtained from inhibition or displacement.
